Reference: the Human Domainome abundance scans (Beltran et al. 2025)
± gives the uncertainty stated by the source.

B1: Histone H1t, residues 44 to 112; numbered along this chain, P22492 (parent)
chain: VSKLITEALSVSQERVGMSLVALKKALAAAGYDVEKNNSRIKLSLKSLVNKGILVQTRGTGASGSFKLS

Variants of: B1
Assay: abundance fitness (aPCA) (normalised: wild type 0, dead -1); higher = more abundant; growth selection in yeast, the domain comes from the species named
Conditions: Homo sapiens

Abundance fitness, by site and new letter:
Q13: C -0.233 ± 0.07; T -0.128 ± 0.057; N -0.206 ± 0.053; A -0.286 ± 0.095; W -0.471 ± 0.091; L -0.33 ± 0.033; M -0.377 ± 0.046; V -0.342 ± 0.069; K 0.014 ± 0.05; S -0.242 ± 0.044; D -0.222 ± 0.14; R -0.093 ± 0.062; G -0.211 ± 0.065; F -0.613 ± 0.041; Y -0.212 ± 0.042; E -0.05 ± 0.14
S19: G 0.147 ± 0.061; V -0.11 ± 0.042; P -0.324 ± 0.073; Y -0.381 ± 0.048; D 0.08 ± 0.08; A -0.205 ± 0.071; W -0.145 ± 0.051; R -0.224 ± 0.055; T -0.056 ± 0.051; Q -0.171 ± 0.054; F -0.043 ± 0.039; E -0.558 ± 0.083; L -0.111 ± 0.03; M -0.153 ± 0.039; N -0.088 ± 0.085; C -0.155 ± 0.062; K -0.021 ± 0.049
V11: S -0.061 ± 0.056; N -0.144 ± 0.071; D -0.138 ± 0.055; K 0.053 ± 0.064; E -0.106 ± 0.063; W -0.04 ± 0.041; Y -0.027 ± 0.043; L -0.129 ± 0.034; I -0.185 ± 0.058; G -0.101 ± 0.032; C -0.077 ± 0.037; R -0.013 ± 0.047; F -0.138 ± 0.035; M -0.255 ± 0.056
S10: Y -0.286 ± 0.04; Q -0.165 ± 0.12; T 0.016 ± 0.064; P -0.835 ± 0.18; V -0.167 ± 0.058; C -0.43 ± 0.087; E -0.41 ± 0.26; F -0.655 ± 0.034; K -0.17 ± 0.062; M -0.175 ± 0.034; N -0.024 ± 0.053; D -0.029 ± 0.087; I -0.316 ± 0.038; R -0.129 ± 0.084; W -0.788 ± 0.13; H -0.275 ± 0.14; L -0.261 ± 0.029; G 0.027 ± 0.1
A22: T -0.305 ± 0.22; F -0.413 ± 0.07; W -0.101 ± 0.3; H -0.158 ± 0.23; D -0.118 ± 0.34; I -0.699 ± 0.11; N -0.262 ± 0.33; L -0.393 ± 0.059; C -0.034 ± 0.18; K -0.192 ± 0.24; V -0.358 ± 0.11; G -0.45 ± 0.3; S 0.051 ± 0.098; Q -0.003 ± 0.16; Y -0.034 ± 0.1; E -0.801 ± 0.36
E7: F -0.808 ± 0.038; Y -0.589 ± 0.036; R 0.032 ± 0.16; G -1.05 ± 0.21; C -0.493 ± 0.11; S -0.497 ± 0.095; I -0.739 ± 0.047; M -0.63 ± 0.052; K -0.12 ± 0.05; N -0.118 ± 0.042; V -0.826 ± 0.088; D -0.101 ± 0.073; W -0.275 ± 0.21; L -0.89 ± 0.044; Q -0.429 ± 0.15
V16: N 0.042 ± 0.034; K -0.16 ± 0.033; Y -0.045 ± 0.033; D 0.347 ± 0.19; T -0.024 ± 0.052; F -0.224 ± 0.03; I -0.058 ± 0.033; M -0.076 ± 0.031; A 0.037 ± 0.23; H -0.031 ± 0.051; P -0.416 ± 0.059; R -0.718 ± 0.39
G17: I -0.254 ± 0.047; Q -0.075 ± 0.059; H -0.116 ± 0.066; N 0.015 ± 0.057; F -0.465 ± 0.041; V -0.1 ± 0.053; P -0.484 ± 0.087; L -0.478 ± 0.036; K 0.157 ± 0.046; A -0.07 ± 0.089; W -0.49 ± 0.095; Y -0.4 ± 0.05; D -0.398 ± 0.12; M -0.296 ± 0.048; C -0.17 ± 0.062; R -0.025 ± 0.056; S -0.24 ± 0.043; T -0.134 ± 0.054
S12: D 0.019 ± 0.076; M -0.093 ± 0.044; G 0.019 ± 0.048; Y -0.48 ± 0.042; N -0.202 ± 0.052; W -0.416 ± 0.068; H -0.353 ± 0.13; Q -0.034 ± 0.09; E -0.429 ± 0.081; P -0.486 ± 0.18; A -0.007 ± 0.08; C 0.024 ± 0.067; R -0.511 ± 0.057; F -0.038 ± 0.032; K -0.275 ± 0.054; I 0.042 ± 0.04; V 0.095 ± 0.049; L -0.005 ± 0.032
L23: P -0.885 ± 0.099; Y -0.933 ± 0.088; R -0.942 ± 0.089; G -1.27 ± 0.2; C -0.363 ± 0.077; D -1.22 ± 0.27; E -0.47 ± 0.14; I -0.087 ± 0.05; A -0.384 ± 0.094; W -0.541 ± 0.061; S -1 ± 0.06; K -1.12 ± 0.088; N -0.95 ± 0.13; V -0.076 ± 0.051; F -0.197 ± 0.038; M -0.226 ± 0.038; H -1.05 ± 0.093
E14: L -0.71 ± 0.033; C -0.838 ± 0.46; D -0.271 ± 0.36; I -0.712 ± 0.055; Q -0.456 ± 0.087; Y -0.67 ± 0.056; V -0.651 ± 0.13; R -0.61 ± 0.23; M -0.649 ± 0.051; F -0.852 ± 0.039; A -0.456 ± 0.19; S -0.274 ± 0.05; T -0.4 ± 0.071; K -0.449 ± 0.083; N -0.508 ± 0.084; H -0.373 ± 0.087
L20: K -0.239 ± 0.052; E -0.046 ± 0.069; M -0.022 ± 0.041; W -0.008 ± 0.038; I -0.026 ± 0.036; G -0.412 ± 0.045; Y 0.01 ± 0.035; C -0.205 ± 0.038; V -0.048 ± 0.036; A -0.234 ± 0.054; T -0.351 ± 0.046; Q -0.5 ± 0.065; H -0.465 ± 0.057; F 0.013 ± 0.032; P -0.841 ± 0.06; N -0.724 ± 0.061; R -0.537 ± 0.045; D -0.346 ± 0.073; S -0.561 ± 0.036
K24: T -0.267 ± 0.047; E -0.363 ± 0.054; S -0.656 ± 0.058; G -0.485 ± 0.071; M -0.295 ± 0.046; H -0.694 ± 0.12; R -0.161 ± 0.045; F -0.494 ± 0.08; D -1.33 ± 0.21; C -0.579 ± 0.091; P -1.22 ± 0.12; W -0.533 ± 0.064; N -0.359 ± 0.056; I -0.738 ± 0.079; Y -0.164 ± 0.069; L -0.418 ± 0.039
A26: F -0.172 ± 0.03; N -0.401 ± 0.051; V -0.064 ± 0.075; Q -0.381 ± 0.073; M -0.033 ± 0.035; K 0.07 ± 0.049; L -0.138 ± 0.028; D -0.954 ± 0.23; H -0.167 ± 0.06; R -0.415 ± 0.11; S -0.121 ± 0.043; I -0.171 ± 0.035; P -0.906 ± 0.19; T -0.106 ± 0.062; E -0.252 ± 0.21; C -0.14 ± 0.064
V21: R 0.113 ± 0.082; Y -0.207 ± 0.028; C -0.164 ± 0.11; Q 0.181 ± 0.055; I -0.067 ± 0.028; H 0.061 ± 0.044; A 0.091 ± 0.1; W -0.16 ± 0.096; N 0.123 ± 0.03; L -0.062 ± 0.027; M -0.037 ± 0.029; F -0.142 ± 0.026; S 0.018 ± 0.04; D 0 ± 0.093; P -0.199 ± 0.071; E 0.038 ± 0.14
L9: S -0.66 ± 0.1; I 0.045 ± 0.039; C -0.401 ± 0.41; V -0.301 ± 0.36; Y -0.1 ± 0.039; F -0.061 ± 0.027; M -0.145 ± 0.043; K -0.194 ± 0.051; Q -0.697 ± 0.23; H -0.915 ± 0.47; N -0.826 ± 0.062; T 0.03 ± 0.13
K25: H -0.325 ± 0.065; Y -0.827 ± 0.077; E -0.085 ± 0.048; T -0.352 ± 0.062; I -0.697 ± 0.058; A -0.225 ± 0.048; F -0.892 ± 0.064; P -1.34 ± 0.21; G -0.231 ± 0.04; V -0.627 ± 0.032; N -0.171 ± 0.061; M -0.785 ± 0.057; S -0.23 ± 0.046; L -0.862 ± 0.042; D -0.158 ± 0.058; W -0.602 ± 0.064
M18: C -0.127 ± 0.062; F -0.481 ± 0.082; S 0.009 ± 0.11; N 0.016 ± 0.077; E -0.108 ± 0.055; D -0.359 ± 0.11; G -0.129 ± 0.045; R 0.107 ± 0.072; K 0.238 ± 0.051; T -0.006 ± 0.08; I -0.37 ± 0.07; L -0.077 ± 0.034; V -0.318 ± 0.039; W -0.374 ± 0.049; Y -0.487 ± 0.076
R15: D 0.096 ± 0.13; T 0.05 ± 0.055; F -0.258 ± 0.052; P -0.163 ± 0.11; H -0.061 ± 0.13; L -0.501 ± 0.046; S -0.089 ± 0.046; K 0.234 ± 0.069; N 0.063 ± 0.081; E 0.084 ± 0.091; Q -0.143 ± 0.24; M -0.364 ± 0.053; V -0.45 ± 0.1; Y -0.338 ± 0.069; G -0.15 ± 0.48; I -0.312 ± 0.076
L27: F -0.221 ± 0.036; A -0.506 ± 0.092; P -1.06 ± 0.1; D -0.677 ± 0.091; K -0.999 ± 0.063; R -1.12 ± 0.11; H -0.838 ± 0.09; I -0.116 ± 0.039; C -0.394 ± 0.078; M -0.159 ± 0.038; G -0.681 ± 0.1; Q -1.06 ± 0.11; N -0.906 ± 0.069
A8: K -0.411 ± 0.076; P -1.06 ± 0.22; W -0.026 ± 0.05; D -1.13 ± 0.14; Y -0.345 ± 0.043; F -0.217 ± 0.029; R -0.335 ± 0.056; G -0.522 ± 0.053; M -0.163 ± 0.038; Q -0.584 ± 0.13; I -0.032 ± 0.04; H -0.324 ± 0.11; S -0.42 ± 0.055; C -0.137 ± 0.056; L -0.275 ± 0.027; N -0.531 ± 0.078; T -0.447 ± 0.14; E -0.719 ± 0.13
